Earlier results on 1 substance are cited in paper PMC10875074.

The term Kd denotes the constant that tells how readily two partners part at equilibrium.

This series concerns the target CD155 (poliovirus receptor, Necl-5) (Homo sapiens) (UniProt P15151).
Chain of UniProt P15151 (P15151 21-343): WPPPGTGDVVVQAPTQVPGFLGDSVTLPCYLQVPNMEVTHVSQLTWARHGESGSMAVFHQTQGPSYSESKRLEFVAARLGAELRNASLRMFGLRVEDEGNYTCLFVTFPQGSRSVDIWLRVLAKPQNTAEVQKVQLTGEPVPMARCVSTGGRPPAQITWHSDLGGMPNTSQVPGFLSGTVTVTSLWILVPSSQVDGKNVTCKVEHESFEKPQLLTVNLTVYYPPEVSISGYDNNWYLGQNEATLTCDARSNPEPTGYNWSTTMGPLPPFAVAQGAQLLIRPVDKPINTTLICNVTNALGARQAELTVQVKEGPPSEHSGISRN

On to TIGIT (from UniProt Q495A1), for which the Kd was 2 nM.
